{"source": "patent US20240270874A1", "about": "(JIANGSU HENGRUI PHARMACEUTICALS, published 2024)", "binders": {"B1": {"name": "hAb99-13 (antibody, human IgG1, kappa, L234A L235A, V domains shown)", "VH": "EVQLVQSGAEVKKPGASVKVSCKASGYTFTNYGINWVRQAPGQRLEWMGYIYIGNVDIEYNAKFKGRVTITSDTSASTAYMELSSLRSEDTAVYYCARGRGLGHFDVWGQGTTVTVSS", "VL": "DIQMTQSPSSLSASVGDRVTITCRASKSISKFLAWFQQKPGKTNKLLIYSGSTLQSGVPSRFSGSGSGTDFTLTISSLQPEDFATYYCQQHNEYPWTFGGGTKVEIKR", "notes": "human IgG1 (L234A, L235A) / kappa"}}, "biological_target": "human KLB&FGFR1c complex on cells (human, UniProt Q86Z14 1-1044; P11362 22-822)", "sequence (P11362 22-822, one chain of several)": "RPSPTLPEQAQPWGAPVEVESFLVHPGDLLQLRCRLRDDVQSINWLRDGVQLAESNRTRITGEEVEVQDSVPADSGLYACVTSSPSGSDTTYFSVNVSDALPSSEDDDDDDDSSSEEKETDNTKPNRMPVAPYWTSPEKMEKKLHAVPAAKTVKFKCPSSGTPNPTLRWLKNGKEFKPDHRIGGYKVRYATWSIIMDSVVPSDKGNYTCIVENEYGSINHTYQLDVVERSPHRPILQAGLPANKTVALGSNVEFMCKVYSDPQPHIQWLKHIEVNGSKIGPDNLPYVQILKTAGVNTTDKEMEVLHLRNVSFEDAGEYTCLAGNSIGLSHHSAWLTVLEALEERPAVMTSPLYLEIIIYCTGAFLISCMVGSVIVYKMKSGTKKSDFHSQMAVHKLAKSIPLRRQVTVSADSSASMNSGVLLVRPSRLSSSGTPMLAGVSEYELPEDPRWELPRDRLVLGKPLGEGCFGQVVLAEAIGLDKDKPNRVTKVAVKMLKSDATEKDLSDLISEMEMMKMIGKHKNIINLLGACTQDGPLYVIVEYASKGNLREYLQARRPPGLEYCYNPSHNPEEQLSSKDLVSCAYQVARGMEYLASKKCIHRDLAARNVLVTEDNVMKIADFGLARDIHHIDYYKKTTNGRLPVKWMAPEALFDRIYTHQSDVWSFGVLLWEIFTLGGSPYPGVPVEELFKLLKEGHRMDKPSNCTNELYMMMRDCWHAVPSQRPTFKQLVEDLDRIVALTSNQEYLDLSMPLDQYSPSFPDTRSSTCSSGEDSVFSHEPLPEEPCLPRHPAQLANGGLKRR", "assay": "cell-based or functional assay"}
{"binder": "B1", "values": [{"measurement": "Activation fold, GAL4-Elk1 luciferase reporter in CHOK1-hKLB&hFGFR1c cells", "value": 14.3, "unit": "fold"}, {"measurement": "EC50 (nM), GAL4-Elk1 luciferase reporter in CHOK1-hKLB&hFGFR1c cells", "value": 0.19, "unit": "nM"}]}
